Measurements published in the RNAGym collection of RNA variant scans (doi:10.1073/pnas.2313332121).
Variants at the floor of the assay were thinned out.

B1: TPR 5TU (parent)
chain: GGAUCUUCUCGAUCUAACAAAAAAGACAAAUCUGCCACAAAGCUUGAGAGCAUCUUCGGAUGCAGAGGCGGCAGCCUUCGGUGGCGCGAUAGCGCCAACGUUCUCAACUAUGACACGCAAAACGCGUGCUCCGUUGAAUGGAGUUUAUCAUG

Variants of: B1
Assay: polymerase ribozyme fitness, log enrichment relative to wild type (log ratio); higher = more active; in vitro selection for triplet polymerase activity
Outline: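 In triplicate, a single round of in vitro selection was run on each mutant library, PCR-built and transcribed, covering one subunit of a heterodimeric triplet polymerase ribozyme. Frozen incubation at −7 °C followed annealing with a biotinylated primer, partner subunit and triplets, and extended constructs were then gel-excised, streptavidin-captured and taken through RT-PCR. Fitness is the logarithm of genotype enrichment over wild-type enrichment, from inverse-variance-weighted replicate averages of Illumina-sequenced inputs and outputs. […] only genotypes with ≥10 input reads and ≥1 read per output were kept.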

**Q.** For U53A G83A C114U, which “polymerase ribozyme fitness (log ratio)” value is on record?
**A.** Its value is -3.28.

**Q.** With C54G C103A G140C as the variant, how does the “polymerase ribozyme fitness (log ratio)” value read?
**A.** Its value is ≤ -4.2.

**Q.** For C54A C69U U144C, which “polymerase ribozyme fitness (log ratio)” value is on record?
**A.** The value was -3.51.

**Q.** Which “polymerase ribozyme fitness (log ratio)” value does the source give for C54A G94U A97C C125G here?
**A.** Its value is -2.89.

**Q.** For U53C A73G G84A U109G G140C, which “polymerase ribozyme fitness (log ratio)” value is on record?
**A.** Its value is ≤ -4.2.

**Q.** Which “polymerase ribozyme fitness (log ratio)” value does the source give for C54A G136A here?
**A.** The value was -0.852.

**Q.** With U53A G83C C95U A97C G100A C116G as the variant, how does the “polymerase ribozyme fitness (log ratio)” value read?
**A.** The value was ≤ -4.2.

**Q.** With C54A A97U as the variant, how does the “polymerase ribozyme fitness (log ratio)” value read?
**A.** The value was -1.79.

**Q.** For U53G U56A G94C A115C C123G, which “polymerase ribozyme fitness (log ratio)” value is on record?
**A.** The value was -3.89.

**Q.** Which “polymerase ribozyme fitness (log ratio)” value does the source give for C54G A66C G70C G100C here?
**A.** The value was ≤ -4.2.

**Q.** For C54A A106C, which “polymerase ribozyme fitness (log ratio)” value is on record?
**A.** The value was -2.06.

**Q.** For U53A A120G, which “polymerase ribozyme fitness (log ratio)” value is on record?
**A.** Its value is -1.88.

**Q.** For U53C C93G C99G C118A G126A U146G, which “polymerase ribozyme fitness (log ratio)” value is on record?
**A.** The value was ≤ -4.2.

**Q.** With U53A C76G as the variant, how does the “polymerase ribozyme fitness (log ratio)” value read?
**A.** The value was ≤ -4.2.

**Q.** Which “polymerase ribozyme fitness (log ratio)” value does the source give for U53A C76A here?
**A.** The value was -2.19.

**Q.** For A52U U139G U144C, which “polymerase ribozyme fitness (log ratio)” value is on record?
**A.** Its value is -1.12.

**Q.** With C54A G88C as the variant, how does the “polymerase ribozyme fitness (log ratio)” value read?
**A.** The value was -3.99.

**Q.** For C54A C96G C105U U144C, which “polymerase ribozyme fitness (log ratio)” value is on record?
**A.** The value was -2.85.

**Q.** Which “polymerase ribozyme fitness (log ratio)” value does the source give for U53A C75G C76U U82A C95U G128A here?
**A.** Its value is ≤ -4.2.

**Q.** For U53A G143A U146C, which “polymerase ribozyme fitness (log ratio)” value is on record?
**A.** The value was -2.83.

**Q.** With U53A A119U as the variant, how does the “polymerase ribozyme fitness (log ratio)” value read?
**A.** Its value is -2.1.

**Q.** For C54G C76A A89C A98U A115U U151A, which “polymerase ribozyme fitness (log ratio)” value is on record?
**A.** Its value is ≤ -4.2.

**Q.** Which “polymerase ribozyme fitness (log ratio)” value does the source give for U53A C85A G124U G143C U146C here?
**A.** Its value is ≤ -4.2.

**Q.** For C54A C116U U139A, which “polymerase ribozyme fitness (log ratio)” value is on record?
**A.** Its value is -4.11.

**Q.** For C54A C96G C103U C116A G136U, which “polymerase ribozyme fitness (log ratio)” value is on record?
**A.** The value was -4.12.

**Q.** For U53A C87U, which “polymerase ribozyme fitness (log ratio)” value is on record?
**A.** The value was -0.931.

**Q.** Which “polymerase ribozyme fitness (log ratio)” value does the source give for C54A C118A here?
**A.** Its value is -1.5.

**Q.** With U53A A147G as the variant, how does the “polymerase ribozyme fitness (log ratio)” value read?
**A.** Its value is -3.69.

**Q.** Which “polymerase ribozyme fitness (log ratio)” value does the source give for U53A C72U A97G U134A here?
**A.** The value was -3.33.

**Q.** With U53A C75U G88C as the variant, how does the “polymerase ribozyme fitness (log ratio)” value read?
**A.** Its value is ≤ -4.2.

**Q.** For U53A C54A C108G G140A, which “polymerase ribozyme fitness (log ratio)” value is on record?
**A.** Its value is ≤ -4.2.

**Q.** For U53A U56A G58A C85U, which “polymerase ribozyme fitness (log ratio)” value is on record?
**A.** The value was 0.824.

**Q.** Which “polymerase ribozyme fitness (log ratio)” value does the source give for A52U U61G A91G C96A G117C here?
**A.** The value was -3.76.

**Q.** Which “polymerase ribozyme fitness (log ratio)” value does the source give for C54A U55A C57A here?
**A.** The value was 0.336.

**Q.** With U53A C76U G83A as the variant, how does the “polymerase ribozyme fitness (log ratio)” value read?
**A.** Its value is -1.6.

**Q.** For U53A U56C G141U, which “polymerase ribozyme fitness (log ratio)” value is on record?
**A.** Its value is -0.733.

**Q.** For C54A G94U C123G C125A U134C, which “polymerase ribozyme fitness (log ratio)” value is on record?
**A.** Its value is -3.75.

**Q.** Which “polymerase ribozyme fitness (log ratio)” value does the source give for U53G G59A here?
**A.** Its value is -1.37.

**Q.** With C54A C79U C93A A113U U127G as the variant, how does the “polymerase ribozyme fitness (log ratio)” value read?
**A.** Its value is ≤ -4.2.

**Q.** Which “polymerase ribozyme fitness (log ratio)” value does the source give for U53G A115C G143A here?
**A.** Its value is -4.06.

**Q.** For U53A U55G C57A, which “polymerase ribozyme fitness (log ratio)” value is on record?
**A.** The value was 0.733.

**Q.** Which “polymerase ribozyme fitness (log ratio)” value does the source give for U53G C57A C85U A115U A121C here?
**A.** Its value is -2.93.

**Q.** Which “polymerase ribozyme fitness (log ratio)” value does the source give for C54A C85G U102G here?
**A.** The value was ≤ -4.2.

**Q.** With C54G C96U as the variant, how does the “polymerase ribozyme fitness (log ratio)” value read?
**A.** Its value is -1.33.

**Q.** For C54G C96A, which “polymerase ribozyme fitness (log ratio)” value is on record?
**A.** The value was -2.41.

**Q.** Which “polymerase ribozyme fitness (log ratio)” value does the source give for C54A G70U G94A here?
**A.** The value was -4.02.

**Q.** Which “polymerase ribozyme fitness (log ratio)” value does the source give for C54A U55A C103G here?
**A.** Its value is ≤ -4.2.

**Q.** For C54G, which “polymerase ribozyme fitness (log ratio)” value is on record?
**A.** The value was -1.45.

**Q.** For C54A, which “polymerase ribozyme fitness (log ratio)” value is on record?
**A.** The value was -1.06.

**Q.** With C54A G67A G70C C72G A73C G74A C75G C87G C116G as the variant, how does the “polymerase ribozyme fitness (log ratio)” value read?
**A.** The value was ≤ -4.2.

**Q.** For C54A C57A C87A A89G, which “polymerase ribozyme fitness (log ratio)” value is on record?
**A.** Its value is ≤ -4.2.

**Q.** For A52U U53G U56A G65C C75U C85U U104G U127C U139A, which “polymerase ribozyme fitness (log ratio)” value is on record?
**A.** The value was ≤ -4.2.

**Q.** Which “polymerase ribozyme fitness (log ratio)” value does the source give for C54A U101G U134C U139G U144A here?
**A.** Its value is -1.85.

**Q.** With C54G C76G A89U C93A A113G C116U as the variant, how does the “polymerase ribozyme fitness (log ratio)” value read?
**A.** Its value is ≤ -4.2.

**Q.** For U53A G81U G88A A115G A147U, which “polymerase ribozyme fitness (log ratio)” value is on record?
**A.** Its value is ≤ -4.2.

**Q.** For U53G C95U, which “polymerase ribozyme fitness (log ratio)” value is on record?
**A.** Its value is -3.07.

**Q.** With U53A G59A G84U as the variant, how does the “polymerase ribozyme fitness (log ratio)” value read?
**A.** The value was -1.32.

**Q.** Which “polymerase ribozyme fitness (log ratio)” value does the source give for A52U U104A G133C G141C U146G here?
**A.** Its value is ≤ -4.2.

**Q.** Which “polymerase ribozyme fitness (log ratio)” value does the source give for U53G U55A U78A C93U A142C U148C here?
**A.** The value was ≤ -4.2.

**Q.** With U53A C69U A89G G94U C96U A115U U148G U151G as the variant, how does the “polymerase ribozyme fitness (log ratio)” value read?
**A.** Its value is ≤ -4.2.

**Q.** With C54A C85G C95G C114A U134G as the variant, how does the “polymerase ribozyme fitness (log ratio)” value read?
**A.** Its value is ≤ -4.2.

**Q.** With C54A G58A A91U C95A as the variant, how does the “polymerase ribozyme fitness (log ratio)” value read?
**A.** Its value is ≤ -4.2.

**Q.** Which “polymerase ribozyme fitness (log ratio)” value does the source give for U53A A122G U134A here?
**A.** The value was -3.02.

**Q.** Which “polymerase ribozyme fitness (log ratio)” value does the source give for U53C G86U C96A U146A here?
**A.** The value was -2.73.

**Q.** Which “polymerase ribozyme fitness (log ratio)” value does the source give for A52U U82G U135G A150U here?
**A.** Its value is -2.62.

**Q.** Which “polymerase ribozyme fitness (log ratio)” value does the source give for U53C G86A C95U here?
**A.** The value was -1.78.

**Q.** With U53A C63A A66G G67A G84A A97G as the variant, how does the “polymerase ribozyme fitness (log ratio)” value read?
**A.** The value was ≤ -4.2.

**Q.** Which “polymerase ribozyme fitness (log ratio)” value does the source give for C54G A91G here?
**A.** The value was -4.01.

**Q.** With C54G A91U as the variant, how does the “polymerase ribozyme fitness (log ratio)” value read?
**A.** Its value is ≤ -4.2.

**Q.** With U53G C93A C103G as the variant, how does the “polymerase ribozyme fitness (log ratio)” value read?
**A.** The value was ≤ -4.2.

**Q.** With U53A A89C G94A G141C as the variant, how does the “polymerase ribozyme fitness (log ratio)” value read?
**A.** The value was -3.63.

**Q.** With U53A U109G as the variant, how does the “polymerase ribozyme fitness (log ratio)” value read?
**A.** The value was -0.777.

**Q.** For U53G G71C G86A G143U, which “polymerase ribozyme fitness (log ratio)” value is on record?
**A.** The value was ≤ -4.2.

**Q.** Which “polymerase ribozyme fitness (log ratio)” value does the source give for U53A C96U C105G G112C U146C here?
**A.** The value was ≤ -4.2.

**Q.** For U53A C132U U146G, which “polymerase ribozyme fitness (log ratio)” value is on record?
**A.** The value was -3.87.

**Q.** With U53A U61A U109G as the variant, how does the “polymerase ribozyme fitness (log ratio)” value read?
**A.** The value was -2.25.

**Q.** For C54A U55A A60U, which “polymerase ribozyme fitness (log ratio)” value is on record?
**A.** Its value is -1.37.

**Q.** For U53A G58A G80A G81A C87U, which “polymerase ribozyme fitness (log ratio)” value is on record?
**A.** The value was -2.31.

**Q.** For C54G C87G C103A C129G C132U, which “polymerase ribozyme fitness (log ratio)” value is on record?
**A.** Its value is ≤ -4.2.

**Q.** With U53A G83C G94U A97G U101G U102G C116A G140U as the variant, how does the “polymerase ribozyme fitness (log ratio)” value read?
**A.** Its value is ≤ -4.2.

**Q.** Which “polymerase ribozyme fitness (log ratio)” value does the source give for A52U U78C U102C here?
**A.** Its value is -2.88.

**Q.** For U53G U135C, which “polymerase ribozyme fitness (log ratio)” value is on record?
**A.** Its value is -3.23.

**Q.** Which “polymerase ribozyme fitness (log ratio)” value does the source give for A52U U144G A147C here?
**A.** Its value is -0.409.
